Data as given in patent US20020199211A1 (CHILDREN S MEDICAL CENTER, published 2002).

How the values were obtained:
[1] = molecular target: Nck-GBT9 (full-length Nck in the bait vector pGBT9) (UniProt P04386 1-147; P16333 1-377); test: yeast two-hybrid (HF7c); - means no growth on selective medium
Protocol: (§1) Yeast transformation and colony analysis were performed according to the manufacturer's instructions (Matchmaker Two-Hybrid System Protocol, CLONTECH).

[2] = molecular target: T1, full length WASP cloned into the bait vector pGBT9 (Gal4 binding domain fusion) (UniProt P04386 1-147; P42768 1-502); test: as above
T1 construct: also called WAS protein
Protocol: as §1

B1: pGAD424 without insert (Gal4 activation domain alone) (other, UniProt P04386 768-881, looked up)
chain: ANFNQSGNIADSSLSFTFTNSSNGPNLITTQTNSQALSQPIASSNVHDNFMNNEITASKIDDGNNSKPLSPGWTDQTAYNAFGITTGMFNTTTMDDVYNYLFDDEDTPPNPKKE
notes: also called None (pGAD424)
binding result [1]: no binding
binding result [2]: no binding

B2: human TRAF1 (amino acids 62-416) in pGAD424 (other, UniProt Q13077 62-416, looked up, not shown: large carriers)
chain: LQSISPGSRLRTQEKAHPEVAEAGIGCPFAGVGCSFKGSPQSVQEHEVTSQTSHLNLLLGFMKQWKARLGCGLESGPMALEQNLSDLQLQAAVEVAGDLEVDCYRAPCSESQEELALQHFMKEKLLAELEGKLRVFENIVAVLNKEVEASHLALATSIHQSQLDRERILSLEQRVVELQQTLAQKDQALGKLEQSLRLMEEASFDGTFLWKITNVTRRCHESACGRTVSLFSPAFYTAKYGYKLCLRLYLNGDGTGKRTHLSLFIVIMRGEYDALLPWPFRNKVTFMLLDQNNREHAIDAFRPDLSSASFQRPQSETNVASGCPLFFPLSKLQSPKHAYVKDDTMFLKCIVETST
notes: Control prey; also called tumor necrosis factor receptor-associated factor 1
binding result [1]: no binding
binding result [2]: no binding
